Reference: PMC11342882

Biological target: sACE2_(2).S01-IgG1 (human) (UniProt Q9BYF1)
Test: BLI

Delta-RBD (from UniProt P0DTC2) (domain or fragment)
Kd: 1 nM
